Measurements taken from article PMC8080530, “Glucocorticoid receptor Thr524 phosphorylation by MINK1 induces interactions with 14-3-3 protein regulators” (The Journal of Biological Chemistry, 2021).
Where two headings read alike, the source gives them in different places. Non-standard residues stand in square brackets, D forms with d. Residues, ends and D or L forms follow the SMILES beside them. Primed or numbered codes have the meaning given here. No end group written: not given here. *: point of attachment. FITC′ = fluorescein isothiocyanate tag added on resin (method C); FITC = O=C1OC2(c3ccc(O)cc3Oc3cc(O)ccc32)c2ccc(NC(=S)*)cc21; pT = C[C@@H](OP(=O)(O)O)[C@H](N)C(=O)O; pS = N[C@@H](COP(=O)(O)O)C(=O)O

Legend:
14-3-3ζ = target: T1, 14-3-3ζ (Homo sapiens, UniProt P63104); experiment: FP assay with GR phosphorylated peptides and 14-3-3ζ; type: binding
T1 construct: Full-length expression and purification of 14-3-3; made in house; host or cells: E. coli BL21 (DE3)STAR
T1 sequence (P63104 1-245): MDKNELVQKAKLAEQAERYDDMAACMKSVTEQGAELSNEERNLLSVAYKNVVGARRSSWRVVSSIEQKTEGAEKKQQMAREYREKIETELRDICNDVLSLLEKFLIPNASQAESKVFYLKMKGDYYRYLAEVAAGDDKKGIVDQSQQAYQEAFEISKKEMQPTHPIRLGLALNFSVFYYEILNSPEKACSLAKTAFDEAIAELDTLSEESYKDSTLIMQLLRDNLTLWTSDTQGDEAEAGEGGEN
In short: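 Fluorescence polarization (ex 485/em 520 nm) was read in triplicate after 30-min RT incubation. Binding data were fitted to a standard Hill equation and expressed in mP units. The dynamic range (ΔmP) is the difference between bound and free peptide signals.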

14-3-3σ = target: T2, 14-3-3σ (Homo sapiens, UniProt P31947); experiment: FP assay with GR phosphorylated peptides and 14-3-3σ; type: binding; details: FITC-labeled peptide titrated with 14-3-3σ, 30 min RT, triplicates
T2 construct: Full-length expression and purification of 14-3-3; made in house; host or cells: E. coli BL21 (DE3)STAR
T2 sequence (P31947 1-248): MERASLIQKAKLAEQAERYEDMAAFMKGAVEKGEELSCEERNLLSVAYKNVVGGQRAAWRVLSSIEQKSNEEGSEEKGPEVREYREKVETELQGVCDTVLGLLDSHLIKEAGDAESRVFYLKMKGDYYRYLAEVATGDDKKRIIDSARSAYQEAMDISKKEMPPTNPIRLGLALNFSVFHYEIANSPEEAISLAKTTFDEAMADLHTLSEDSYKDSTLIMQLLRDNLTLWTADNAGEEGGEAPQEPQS
Experimental: After 30-min incubation at RT, the plates were read on a plate reader PHERAstar (BMG LABTECH GmbH) for FP signal using […] and standard excitation (485 nm) and emission (520 nm). Measurements were performed as triplicates. Binding data were fit to a standard Hill equation using the software Genedata Screener. The figures were made using the software GraphPad Prism 8. FP data were expressed as millipolarization (mP) units, and the dynamic range (ΔmP) was the difference of the signals from the bound peptide and free peptide. Errors are the standard error of the fit.

[1] = target: T3, human 14-3-3σ, full length, 6His-Linker-h14-3-3 (human, UniProt P31947 1-248); experiment: fluorescence polarisation; FITC-labelled peptide at 60 nM (monophosphorylated) or 10 nM (doubly phosphorylated) titrated with 14-3-3ζ or 14-3-3σ in dilution series from 300 μM or 150 μM; 30 min at RT; 384-well plate; Hill fit; triplicates; details: both partners purified
T3 construct: 14-3-3 protein sigma, human, cloned in pProEx Htb; also called σ isoform of human 14-3-3; source: E. coli BL21 (DE3)STAR, purified (Ni-NTA, SEC); not shown: His6 with linker [residues removed], N-terminal, kept
T3 sequence (looked up): T2 sequence (P31947 1-248)

[2] = target: T4, human 14-3-3ζ, full length, 6His-Linker-h14-3-3 (human, UniProt P63104 1-245); experiment: FP
T4 chain: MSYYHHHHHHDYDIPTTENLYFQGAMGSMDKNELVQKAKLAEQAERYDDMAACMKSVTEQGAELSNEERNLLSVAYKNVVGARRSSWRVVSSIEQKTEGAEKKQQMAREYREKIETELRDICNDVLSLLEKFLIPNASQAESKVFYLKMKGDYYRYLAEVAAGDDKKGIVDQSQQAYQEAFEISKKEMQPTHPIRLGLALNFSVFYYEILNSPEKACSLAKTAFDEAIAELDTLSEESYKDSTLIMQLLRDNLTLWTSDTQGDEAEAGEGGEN

[3] = target: T4, human 14-3-3ζ, full length, …; experiment: SPR
[4] = read-out: PKd with 14-3-3ζ (converted)

CC[C@H](C)[C@H](NC(=O)[C@H](CCCCN)NC(=O)[C@H](CCCCN)NC(=O)[C@H](CCCCN)NC(=O)[C@@H](NC(=O)[C@H](CCCCN)NC(=O)[C@H](CCCNC(=N)N)NC(=O)[C@H](C)NC(=O)[C@H](CCC(=O)O)NC(=O)[C@H](CC(C)C)NC(=O)[C@@H](N)CC(N)=O)[C@@H](C)OP(=O)(O)O)C(=O)N[C@@H](CCCCN)C(=O)NCC(=O)O [GR_pT493] (H-NLEARK[pT]KKKIKG-OH; N-terminus assumed)
Kd (14-3-3ζ; FITC-labeled peptide 60 nM (monophosphorylated) or 10 nM (doubly phosphorylated) titrated with 14-3-3ζ, 30 min RT, Hill fit, triplicates, read-out: Kd with 14-3-3ζ by FP): > 150 µM
Kd (14-3-3σ): > 150 µM

CC[C@H](C)[C@H](NC(=O)[C@@H](NC(=O)[C@@H](N)CCCCN)[C@@H](C)O)C(=O)N[C@H](C(=O)N1CCC[C@H]1C(=O)N[C@@H](C)C(=O)N[C@H](C(=O)N[C@@H](CC(C)C)C(=O)N1CCC[C@H]1C(=O)N[C@@H](CCC(N)=O)C(=O)N[C@@H](CC(C)C)C(=O)N[C@H](C(=O)N1CCC[C@H]1C(=O)NCC(=O)NCC(=O)NCC(=O)NCC(=O)NCC(=O)N[C@@H](CCCNC(=N)N)C(=O)N[C@@H](CO)C(=O)N[C@@H](Cc1ccc(O)cc1)C(=O)N[C@@H](CCCNC(=N)N)C(=O)N[C@@H](CCC(N)=O)C(=O)N[C@@H](CO)C(=O)N[C@@H](COP(=O)(O)O)C(=O)N[C@@H](C)C(=O)N[C@@H](CC(N)=O)C(=O)N[C@@H](CC(C)C)C(=O)N[C@@H](C)C(=O)N[C@@H](CS)C(=O)N[C@@H](Cc1ccccc1)C(=O)O)[C@@H](C)O)[C@@H](C)OP(=O)(O)O)C(C)C [GR_L621A] (H-KTIVPA[pT]LPQLTPGGGGGRSYRQS[pS]ANLACF-OH)
Kd (14-3-3ζ; [4]): 0.0398 µM

CC[C@H](C)[C@H](NC(=O)[C@@H](NC(=O)[C@@H](N)CCCCN)[C@@H](C)O)C(=O)N[C@H](C(=O)N1CCC[C@H]1C(=O)N[C@@H](C)C(=O)N[C@H](C(=O)N[C@@H](CC(C)C)C(=O)N1CCC[C@H]1C(=O)N[C@@H](CCC(N)=O)C(=O)N[C@@H](CC(C)C)C(=O)N[C@H](C(=O)N1CCC[C@H]1C(=O)NCC(=O)NCC(=O)NCC(=O)NCC(=O)NCC(=O)N[C@@H](CCCNC(=N)N)C(=O)N[C@@H](CO)C(=O)N[C@@H](Cc1ccc(O)cc1)C(=O)N[C@@H](CCCNC(=N)N)C(=O)N[C@@H](CCC(N)=O)C(=O)N[C@@H](C)C(=O)N[C@@H](COP(=O)(O)O)C(=O)N[C@@H](C)C(=O)N[C@@H](CC(N)=O)C(=O)N[C@@H](CC(C)C)C(=O)N[C@@H](CC(C)C)C(=O)N[C@@H](CS)C(=O)N[C@@H](Cc1ccccc1)C(=O)O)[C@@H](C)O)[C@@H](C)OP(=O)(O)O)C(C)C [GR_S616A] (H-KTIVPA[pT]LPQLTPGGGGGRSYRQA[pS]ANLLCF-OH)
Kd (14-3-3ζ; [4]): 0.0631 µM

CC[C@H](C)[C@H](NC(=O)[C@@H](NC(=O)[C@@H](N)CCCCN)[C@@H](C)O)C(=O)N[C@H](C(=O)N1CCC[C@H]1C(=O)N[C@@H](C)C(=O)N[C@H](C(=O)N[C@@H](CC(C)C)C(=O)N1CCC[C@H]1C(=O)N[C@@H](CCC(N)=O)C(=O)N[C@@H](CC(C)C)C(=O)N[C@H](C(=O)N1CCC[C@H]1C(=O)NCC(=O)NCC(=O)NCC(=O)NCC(=O)NCC(=O)N[C@@H](CCCNC(=N)N)C(=O)N[C@@H](CO)C(=O)N[C@@H](Cc1ccc(O)cc1)C(=O)N[C@@H](CCCNC(=N)N)C(=O)N[C@@H](CCC(N)=O)C(=O)N[C@@H](CO)C(=O)N[C@@H](COP(=O)(O)O)C(=O)N[C@@H](C)C(=O)N[C@@H](CC(N)=O)C(=O)N[C@@H](CC(C)C)C(=O)N[C@@H](CC(C)C)C(=O)N[C@@H](C)C(=O)N[C@@H](Cc1ccccc1)C(=O)O)[C@@H](C)O)[C@@H](C)OP(=O)(O)O)C(C)C [GR_C622A] (H-KTIVPA[pT]LPQLTPGGGGGRSYRQS[pS]ANLLAF-OH)
Kd (14-3-3ζ; [4]): 0.0631 µM

CC[C@H](C)[C@H](NC(=O)[C@@H](NC(=O)[C@@H](N)CCCCN)[C@@H](C)O)C(=O)N[C@H](C(=O)N1CCC[C@H]1C(=O)N[C@@H](C)C(=O)N[C@@H](C)C(=O)N[C@@H](CC(C)C)C(=O)N1CCC[C@H]1C(=O)N[C@@H](CCC(N)=O)C(=O)N[C@@H](CC(C)C)C(=O)N[C@H](C(=O)N1CCC[C@H]1C(=O)NCC(=O)NCC(=O)NCC(=O)NCC(=O)NCC(=O)N[C@@H](CCCNC(=N)N)C(=O)N[C@@H](CO)C(=O)N[C@@H](Cc1ccc(O)cc1)C(=O)N[C@@H](CCCNC(=N)N)C(=O)N[C@@H](CCC(N)=O)C(=O)N[C@@H](CO)C(=O)N[C@@H](COP(=O)(O)O)C(=O)N[C@@H](C)C(=O)N[C@@H](CC(N)=O)C(=O)N[C@@H](CC(C)C)C(=O)N[C@@H](CC(C)C)C(=O)N[C@@H](CS)C(=O)N[C@@H](Cc1ccccc1)C(=O)O)[C@@H](C)O)C(C)C [GR_T524A-pS617] (H-KTIVPAALPQLTPGGGGGRSYRQS[pS]ANLLCF-OH)
Kd (14-3-3ζ; [4]): 126 µM

B1: GR_pT524, FITC-labelled 13-mer phosphopeptide (peptide, UniProt P04150 518-530, looked up)
peptide: {FITC′}-KTIVPA[pT]LPQLTP
modifications: also: phosphothreonine at 524 (T2, T7 or T12)
notes: glucocorticoid receptor (GR), human; 13-mer centred on T524; source: synthetic peptide
binding result [1]: binds

B2: GR pS83, FITC-labelled 13-mer phosphopeptide (peptide, UniProt P04150 77-89, looked up)
peptide: {FITC}-DLSKAV[pS]LSMGLY
notes: glucocorticoid receptor (GR), human; 13-mer centred on S83; source: synthetic peptide
Kd [2]: 72 µM
binding result [1]: binds

B3: GR pT635, FITC-labelled 13-mer phosphopeptide (peptide, UniProt P04150 629-641, looked up)
peptide: {FITC}-INEQRM[pT]LPCMYD
notes: glucocorticoid receptor (GR), human; 13-mer centred on T635; source: synthetic peptide
binding result [1]: binds

B4: GR_pT524, FITC-labelled 13-mer phosphopeptide (peptide)
peptide: {FITC}-KTIVPATLPQLTP
modifications: also: phosphothreonine at T524, place in chain not given here
Kd [2]: 38 µM

B5: GR_pT524, 13-mer phosphopeptide used for SPR and crystallography (peptide)
peptide: KTIVPATLPQLTP
modifications: also: phosphothreonine at T524, place in chain not given here
Kd [3]: 22 µM

B6: GR_pS617, 13-mer phosphopeptide used for SPR and crystallography (peptide)
peptide: RSYRQS[pS]ANLLCF
modifications: not fully specified (N-terminus)
Kd [3]: 27 µM

B7: GR_pS134, FITC-labelled 13-mer phosphopeptide (peptide, UniProt P04150 128-140, looked up)
peptide: {FITC′}-NLNRST[pS]VPENPK
modifications: also: phosphoserine at 134 (S5 or S7)
notes: glucocorticoid receptor (GR), human; 13-mer centred on S134; also called 13-mer peptide centered on GR S134; source: synthetic peptide
Kd [1]: 110 µM

B8: GR_pS617, FITC-labelled 13-mer phosphopeptide (peptide, UniProt P04150 611-623, looked up)
peptide: {FITC′}-RSYRQS[pS]ANLLCF
modifications: also: phosphoserine at 617 (S6 or S7)
notes: glucocorticoid receptor (GR), human; 13-mer centred on S617; source: synthetic peptide
Kd [2]: 25 µM
binding result [1]: binds

B9: GR pT561, FITC-labelled 13-mer phosphopeptide (peptide, UniProt P04150 555-567, looked up)
peptide: {FITC}-STWRIM[pT]TLNMLG
notes: glucocorticoid receptor (GR), human; 13-mer centred on T561; source: synthetic peptide
binding result [1]: binds

B10: GR pT635, FITC-labelled 13-mer phosphopeptide (peptide)
peptide: {FITC}-INEQRM[pT]LPCMYD
modifications: also: phosphothreonine at T635, place in chain not given here
Kd [2]: 55 µM
